1 molecule from patent US6682911 (GENERAL HOSPITAL, dated 2004) can be followed below.

The target of the assay is T1, human laminin β1 subunit (human, UniProt P07942 22-1786).
T1 construct: 185 kDa chain from laminin 12 isolated from human placental chorionic villi, reduced and resolved by SDS-PAGE; also called 185 kDa band; 185 kDa chain
Description: trimer isolated from placenta; non-reducing then reducing SDS-PAGE and peptide sequencing of the chains. The source says: Protein sequencing was done according to Aebersold et al. (1987). The complex laminin 5-laminin 7 was run on a polyacrylamide gel in the presence of 2-mercaptoethanol and blotted onto a nitrocellulose membrane (Biorad). The 190 kDa band of β2 and the 165 kDa α3 band were separately excised and digested by protease trypsin. The digested product was separated by HPLC and one fragment was sequenced on an Applied Biosystems sequenator (Applied Biosystems, Foster City, Calif.). The 205 kDa chain contained a sequence identical to human laminin α2, and was thus identified as human laminin α2 subunit. The 185 kDa produced two peptides identical to human β1, and was thus identified as human laminin β1 subunit. The band at 170 kDa contained three sequences not contained in any known laminin chain. A N-terminal sequence of the 170 kDa chain was also determined. In addition, the N-terminal sequence was not identical to any known laminin sequence.

T1 sequence (P07942 22-1786 Q1022R limits assumed): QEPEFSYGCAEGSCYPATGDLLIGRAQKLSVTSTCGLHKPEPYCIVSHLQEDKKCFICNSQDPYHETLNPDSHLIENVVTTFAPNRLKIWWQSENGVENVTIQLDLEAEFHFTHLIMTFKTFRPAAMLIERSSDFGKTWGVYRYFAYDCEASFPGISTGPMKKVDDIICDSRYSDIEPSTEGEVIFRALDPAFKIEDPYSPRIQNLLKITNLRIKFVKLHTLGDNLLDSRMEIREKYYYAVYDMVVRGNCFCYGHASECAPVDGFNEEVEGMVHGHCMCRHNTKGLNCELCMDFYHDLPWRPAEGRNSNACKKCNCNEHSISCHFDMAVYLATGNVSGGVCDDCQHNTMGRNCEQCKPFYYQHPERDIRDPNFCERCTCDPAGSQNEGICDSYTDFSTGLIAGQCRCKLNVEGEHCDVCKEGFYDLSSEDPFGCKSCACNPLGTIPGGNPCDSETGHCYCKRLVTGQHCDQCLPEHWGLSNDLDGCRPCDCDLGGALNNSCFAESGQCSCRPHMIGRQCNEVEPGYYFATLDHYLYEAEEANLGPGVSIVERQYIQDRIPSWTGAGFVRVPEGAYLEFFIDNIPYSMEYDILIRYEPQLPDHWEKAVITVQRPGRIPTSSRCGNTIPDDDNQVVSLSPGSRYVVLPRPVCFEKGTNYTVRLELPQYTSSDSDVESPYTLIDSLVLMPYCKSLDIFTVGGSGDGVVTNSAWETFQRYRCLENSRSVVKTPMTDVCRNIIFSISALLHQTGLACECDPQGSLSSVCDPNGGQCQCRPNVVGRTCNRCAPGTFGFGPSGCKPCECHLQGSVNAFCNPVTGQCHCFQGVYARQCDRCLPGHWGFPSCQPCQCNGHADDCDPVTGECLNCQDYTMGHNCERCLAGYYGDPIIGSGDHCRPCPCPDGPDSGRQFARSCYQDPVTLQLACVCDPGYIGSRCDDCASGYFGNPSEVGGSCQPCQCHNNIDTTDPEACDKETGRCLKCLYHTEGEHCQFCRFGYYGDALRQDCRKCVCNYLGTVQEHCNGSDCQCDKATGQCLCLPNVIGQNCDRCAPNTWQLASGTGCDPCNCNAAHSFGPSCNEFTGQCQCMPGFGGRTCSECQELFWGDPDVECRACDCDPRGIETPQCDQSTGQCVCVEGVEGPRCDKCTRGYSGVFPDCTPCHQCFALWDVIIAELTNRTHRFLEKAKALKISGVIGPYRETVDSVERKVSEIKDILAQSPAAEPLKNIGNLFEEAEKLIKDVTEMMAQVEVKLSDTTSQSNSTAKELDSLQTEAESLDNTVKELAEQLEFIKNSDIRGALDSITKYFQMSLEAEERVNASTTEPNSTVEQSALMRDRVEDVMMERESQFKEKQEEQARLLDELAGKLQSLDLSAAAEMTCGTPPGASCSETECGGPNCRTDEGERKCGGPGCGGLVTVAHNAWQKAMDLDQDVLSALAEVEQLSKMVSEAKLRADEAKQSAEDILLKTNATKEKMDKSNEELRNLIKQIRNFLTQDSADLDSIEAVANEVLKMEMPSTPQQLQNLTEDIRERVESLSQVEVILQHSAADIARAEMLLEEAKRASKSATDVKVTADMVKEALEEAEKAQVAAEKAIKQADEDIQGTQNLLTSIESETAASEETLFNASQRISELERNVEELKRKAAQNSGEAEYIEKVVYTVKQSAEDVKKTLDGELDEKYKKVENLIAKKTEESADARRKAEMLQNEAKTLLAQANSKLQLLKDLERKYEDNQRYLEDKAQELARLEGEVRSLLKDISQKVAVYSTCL

B1: human laminin γ3 subunit (other)
chain: AGMGACYDGAGRPQRCLPVFENAAFGRLAQASHTCGSPPEDFCPHVGAAGAGAHCQRCDAADPQRHHNASYLTDFHSQDESTWWQSPSMAFGVQYPTSVNITLRLGKAYEITYVRLKFHTSRPESFAIYKRSRADGPWEPYQFYSASCQKTYGRPEGQYLRPGEDERVAFCTSEFSDISPLSGGNVAFSTLEGRPSAYNFEESPGLQEWVTSTELLISLDRLNTFGDDIFKDPKVLQSYYYAVSDFSVGGRCKCNGHASECGPDVAGQLACRCQHNTTGTDCERCLPFFQDRPWARGTAEAAHECLPCNCSGRSEECTFDRELFRSTGHGGRCHHCRDHTAGPHCERCQENFYHWDPRMPCQPCDCQSAGSLHLQCDDTGTCACKPTVTGWKCDRCLPGFHSLSEGGCRPCTCNPAGSLDTCDPRSGRCPCKENVEGNLCDRCRPGTFNLQPHNPAGCSSCFCYGHSKVCASTAQFQVHHILSDFHQGAEGWWARSVGGSEHSPQWSPNGVLLSPEDEEELTAPGKFLGDQRFSYGQPLILTFRVPPGDSPLPVQLRLEGTGLALSLRHSSLSGPQDARASQGGRAQVPLQETSEDVAPPLPPFHFQRLLANLTSLRLRVSPGPSPAGPVFLTEVRLTSARPGLSPPASWVEICSCPTGYTGQFCESCAPGYKREMPQGGPYASCVPCTCNQHGTCDPNTGICVCSHHTEGPSCERCLPGFYGNPFAGQADDCQPCPCPGQSACTTIPESGEVVCTHCPPGQRGRRCEVCDDGFFGDPLGLFGHPQPCHQCQCSGNVDPNAVGNCDPLSGHCLRCLHNTTGDHCEHCQEGFYGSALAPRPADKCMPCSCHPQGSVSEQMPCDPVTGQCSCLPHVTARDCSRCYPGFFDLQPGRGCRSCKCHPLGSQEDQCHPKTGQCTCRPGVTGQACDRCQLGFFGSSIKGCRACRCSPLGAASAQCHYNGTCVCRPGFEGYKCDRCHYNFFLTADGTHCQQCPSCYALVKEETAKLKARLTLTEGWLQGSDCGSPWGPLDILLGEAPRGDVYQGHHLLPGAREAFLEQMMGLEGAVKAAREQLQRLNKGARCAQAGSQKTCTQLADLEAVLESSEEEILHAAAILASLEIPQEGPSQPTKWSHLAIEARALARSHRDTATKIAATAWRALLASNTSYALLWNLLEGRVALETQRDLEDRYQEVQAAQKALRTAVAEVLPEAESVLATVQQVGADTAPYLALLASPGALPQKSRAEDLGLKAKALEKTVASWQHMATEAARTLQTAAQATLRQTEPLTMARSRLTATFASQLHQGARAALTQASSSVQAATVTVMGARTLLADLEGMKLQFPRPKDQAALQRKADSVSDRLLADTRKKTKQAERMLGNAAPLSSSAKKKGREAEVLAKDSAKLAKALLRERKQAHRRASRLTSQTQATLQQASQQVLASEARRQELEEAERVGAGLSEMEQQIRESRISLEKDIETLSELLARLGSLDTHQAPAQALNETQWALERLRLQLGSPGSLQRKLSLLEQESQQQELQIQGFESDLAEIRADKQNLEAILHSLPENCASWQ
notes: 170 kDa chain from laminin 12 isolated from human placental chorionic villi, reduced and resolved by SDS-PAGE; also called 170 kDa γ3 chain; 170 kDa band
In the case of B1, the binding result is “binds”.
